The values that follow come from paper PMC9751095.

As usually defined, the Kd is a measure of binding affinity in units of concentration. Lower therefore signals a tighter complex.

In this assay the target is Myc-TRAP1 (human) (UniProt Q12931). Description: SPR; printed as "Ka 26 µM". The conditions noted are these: enzyme; chains chain; remark: other sources report otherwise. A general note: SPR reads the build-up and loss of mass on a sensor chip optically.
Chain of Myc-TRAP1 (human) (Q12931 60-704): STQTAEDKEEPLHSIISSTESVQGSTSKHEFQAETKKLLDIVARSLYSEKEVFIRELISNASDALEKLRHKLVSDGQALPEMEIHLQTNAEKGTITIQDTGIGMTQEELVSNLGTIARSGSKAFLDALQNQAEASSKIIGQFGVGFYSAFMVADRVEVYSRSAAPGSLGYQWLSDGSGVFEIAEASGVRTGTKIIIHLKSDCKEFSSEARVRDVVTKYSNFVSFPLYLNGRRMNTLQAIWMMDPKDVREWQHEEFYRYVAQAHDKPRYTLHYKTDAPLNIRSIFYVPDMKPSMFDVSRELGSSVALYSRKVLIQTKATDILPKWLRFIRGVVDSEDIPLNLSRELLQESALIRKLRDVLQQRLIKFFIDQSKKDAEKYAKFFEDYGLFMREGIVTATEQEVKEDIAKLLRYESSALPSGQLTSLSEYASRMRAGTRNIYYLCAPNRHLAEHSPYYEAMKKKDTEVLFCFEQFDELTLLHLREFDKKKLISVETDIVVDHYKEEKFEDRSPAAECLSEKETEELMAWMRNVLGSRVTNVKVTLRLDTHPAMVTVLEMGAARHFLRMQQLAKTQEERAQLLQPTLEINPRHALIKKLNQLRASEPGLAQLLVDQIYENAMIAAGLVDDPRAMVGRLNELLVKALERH

Chain of purified recombinant human cyclophilin D, P30405 30-207 (P30405 30-207): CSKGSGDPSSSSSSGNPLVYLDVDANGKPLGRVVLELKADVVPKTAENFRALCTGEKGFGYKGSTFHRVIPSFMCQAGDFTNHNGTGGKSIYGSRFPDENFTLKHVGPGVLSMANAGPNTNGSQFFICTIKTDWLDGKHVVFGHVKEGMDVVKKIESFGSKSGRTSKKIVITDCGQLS

In turn, “purified recombinant human cyclophilin D, P30405 30-207” yielded a Kd of 26 µM.
